Data published in ChEMBL document CHEMBL1132371, “5-deazafolate analogues with a rotationally restricted glutamate or ornithine side chain: synthesis and binding interaction with folylpolyglutamate synthetase” (J Med Chem, 1999).

Key:
[1] = target: T1, Folylpolyglutamate synthase, mitochondrial (Homo sapiens, UniProt Q05932); assay: Binding affinity as Competitive substrate in the presence of […] aminopterin towards recombinant Human Folyl-polyglutamate synthase (FPGS)
T1 sequence (Q05932 whole entry): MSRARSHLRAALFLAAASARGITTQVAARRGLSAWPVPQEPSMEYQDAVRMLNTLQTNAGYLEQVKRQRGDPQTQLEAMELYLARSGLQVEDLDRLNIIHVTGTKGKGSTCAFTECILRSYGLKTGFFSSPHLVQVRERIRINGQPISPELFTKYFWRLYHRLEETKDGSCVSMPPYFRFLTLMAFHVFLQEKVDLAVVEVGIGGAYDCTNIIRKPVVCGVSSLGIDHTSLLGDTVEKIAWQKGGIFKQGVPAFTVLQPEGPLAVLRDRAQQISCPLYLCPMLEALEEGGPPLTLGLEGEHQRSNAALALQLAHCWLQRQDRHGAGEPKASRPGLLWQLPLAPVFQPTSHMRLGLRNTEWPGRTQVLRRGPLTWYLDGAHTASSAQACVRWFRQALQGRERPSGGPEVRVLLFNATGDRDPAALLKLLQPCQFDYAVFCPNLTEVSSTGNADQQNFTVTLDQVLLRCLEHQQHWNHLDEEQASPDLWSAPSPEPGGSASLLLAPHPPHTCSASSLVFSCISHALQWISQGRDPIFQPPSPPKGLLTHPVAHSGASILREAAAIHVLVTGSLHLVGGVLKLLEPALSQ

[2] = compound: Nc1nc(O)c2c(n1)NCC(CNc1ccc3c(c1)CN([C@@H](CCC(=O)O)C(=O)O)C3=O)C2; assay: (§1) Binding affinity as Competitive substrate in the presence of 10 uM tetrahydrofolate towards recombinant Human Folyl-polyglutamate synthase (FPGS)
[3] = compound: Nc1nc(O)c2c(n1)NCC(CNc1ccc(C(=O)NC(CCC(=O)O)C(=O)O)cc1)C2; assay: as §1
[4] = compound: Nc1nc(O)c2cc(CNc3ccc4c(c3)CN([C@@H](CCC(=O)O)C(=O)O)C4=O)cnc2n1; assay: as §1

## NCCC[C@@H](C(=O)O)N1Cc2cc(NCC3CNc4nc(N)nc(O)c4C3)ccc2C1=O (stereo not given in full)
[1]
  Ki: 0.2 µM

## NCCC[C@@H](C(=O)O)N1Cc2cc(NCc3cnc4nc(N)[nH]c(=O)c4c3)ccc2C1=O
[1]
  Ki: 110 µM

B1: Folylpolyglutamate synthase, mitochondrial (Homo sapiens), Q05932 (protein)
chain: T1 sequence (Q05932 whole entry)
[2]
  Km: 0.018 µM
[3]
  Km: 0.26 µM
[4]
  Km: 2.3 µM
